Test results taken from paper PMC3193175.

Target: split SUMO-modified PCNA (N-fragment and ^SUMOC-fragment self-assembled) (yeast) (UniProt P15873)
Assay: SEC

- stoichiometry N: 3
Substance: split SUMO-modified PCNA (N-fragment and ^SUMOC-fragment self-assembled) (from UniProt P15873 1-163; P15873 165-258) (complex)
